Reference: US20250109190A1 (BYOMASS, published 2025)
Numbering of substitutions follows the chain as printed.

Assays:
Experiment in all cases: BLI Octet; IgG, avid
Activin B = molecular target: T1, Activin B (UniProt P09529 293-407)
T1 sequence (looked up): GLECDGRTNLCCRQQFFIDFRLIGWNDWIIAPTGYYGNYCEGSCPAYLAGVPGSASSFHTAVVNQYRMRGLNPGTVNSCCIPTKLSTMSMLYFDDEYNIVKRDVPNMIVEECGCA

BMP9 = molecular target: T2, BMP9 (UniProt Q9UK05 320-429)
T2 sequence (looked up): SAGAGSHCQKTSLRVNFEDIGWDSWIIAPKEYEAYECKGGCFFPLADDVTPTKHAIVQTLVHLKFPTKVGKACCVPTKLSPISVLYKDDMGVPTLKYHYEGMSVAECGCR

BMP10 = molecular target: T3, BMP10 (UniProt O95393 317-424)
T3 sequence (looked up): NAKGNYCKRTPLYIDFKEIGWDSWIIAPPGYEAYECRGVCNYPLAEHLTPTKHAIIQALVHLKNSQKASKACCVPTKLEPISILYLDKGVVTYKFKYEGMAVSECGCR

GDF15 Fc = molecular target: T4, GDF15 Fc (UniProt Q99988 197-308, limits assumed)
T4 construct: species not given; not shown: Fc part of the fusion
T4 sequence (looked up): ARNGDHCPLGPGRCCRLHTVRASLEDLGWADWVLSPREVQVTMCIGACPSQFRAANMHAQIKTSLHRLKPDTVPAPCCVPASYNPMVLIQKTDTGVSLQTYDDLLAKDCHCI

human GDNF = molecular target: T5, human GDNF (human, UniProt P39905 78-211, limits assumed)
T5 sequence (looked up): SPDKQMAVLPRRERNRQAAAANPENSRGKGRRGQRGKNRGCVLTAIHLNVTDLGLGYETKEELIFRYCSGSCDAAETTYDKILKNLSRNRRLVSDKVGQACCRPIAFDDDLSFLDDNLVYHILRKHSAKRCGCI

human GDF8 = human GDF8 (human, UniProt O14793 267-375)
human GDF10 = molecular target: T6, human GDF10 (human, UniProt P55107 369-478)
T6 sequence (looked up): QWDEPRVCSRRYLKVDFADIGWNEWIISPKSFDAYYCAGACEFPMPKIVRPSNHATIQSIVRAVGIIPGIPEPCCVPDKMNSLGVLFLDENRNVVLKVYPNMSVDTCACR

human GDF11 = human GDF11 (human, UniProt O95390 299-407)

Measured: binding result

Sequence of human GDF11 (O95390 299-407 limits assumed): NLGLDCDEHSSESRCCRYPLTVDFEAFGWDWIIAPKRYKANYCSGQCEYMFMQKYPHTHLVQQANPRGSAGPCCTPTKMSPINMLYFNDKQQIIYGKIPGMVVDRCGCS

B1: Antibody K (Clone K), IgG (antibody, V domains shown)
VH: QVQLVQSGAEVKKPGSSVKVSCKASGGTSSSYAISWVRQAPGQGLEWMGYIIPAFGTANYAQKFQGRVTITADESTSTAYMELSSLRSEDTAVYYCARPVRTYPLGKYFYHWGQGTLVTVSS
VL: EIVLTQSPATLSLSPGERATLSCRASQSVSSYLAWYQQKPGQAPRLLIYDASNRATGIPARFSGSGSGTDFTLTISSLEPEDFAVYYCQQDSIFPPYTFGGGTKVEIKR
notes: IgG
no binding (tested: 100 nM): all assays above

B2: Antibody Q (Clone Q), IgG (antibody, V domains shown)
VH: QVQLVQSGAEVKKPGSSVKVSCKASGGSFSPYTWSWVRQAPGQGLEWMGGIIPISGTANTAQKFQGRVTITADESTSTAYMELSSLRSEDTAVYYCARGGPLSGWRASYYYWGQGTLVTVSS
VL: not shown
notes: IgG
no binding (tested: 100 nM): all assays above

B3: Antibody R (Clone R), IgG (antibody, V domains shown)
VH: B2 VH with W34I, P53L, I54T, T60Y
VL: not shown
notes: IgG
no binding (tested: 100 nM): all assays above

B4: Antibody O (Clone O), IgG (antibody, V domains shown)
VH: QVQLVQSGAEVKKPGSSVKVSCKASGGTFSNYDINWVRQAPGQGLEWMGGIIPVFGTAAYAQKFQGRVTITADESTSTAYMELSSLRSEDTAVYYCAREARDGYRYAFQHWGQGTLVTVSS
VL: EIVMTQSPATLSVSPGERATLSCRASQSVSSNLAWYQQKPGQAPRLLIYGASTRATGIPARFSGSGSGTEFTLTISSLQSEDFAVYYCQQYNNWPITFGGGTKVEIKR
notes: IgG
no binding (tested: 100 nM): all assays above

B5: Antibody G (Clone G), IgG (antibody, V domains shown)
VH: QVQLVQSGAEVKKPGASVKVSCKASGYTFTSYYIHWVRQAPGQGLEWMGAIYAYSGDTNYAQKLQGRVTMTTDTSTSTAYMELRSLRSDDTAVYYCARARDIAAAGLGAFDYWGQGTLVTVSS
VL: EIVLTQSPGTLSLSPGERATLSCRASQSVRSSYLAWYQQKPGQAPRLLIYGASSRATGIPDRFSGSGSGTDFTLTISRLEPEDFAVYYCQQYSNYPRTFGGGTKVEIKR
notes: IgG
no binding (tested: 100 nM): all assays above

B6: Antibody I (Clone I), IgG (antibody, V domains shown)
VH: QVQLVQSGAEVKKPGSSVKVSCKASGGTFSNYAISWVRQAPGQGLEWMGYIIPFFGTANYAQKFQGRVTITADESTSTAYMELSSLRSEDTAVYYCARGGSGYSTSWGSSLYWGQGTLVTVSS
VL: B5 VL with R30S, S54Y, Q90L, Y92S, S93G, N94V, Y95F, R97Y
notes: IgG
no binding (tested: 100 nM): all assays above
